Data published in US8044021B2, “Sustained release of apo A-I mimetic peptides and methods of treatment” (Abbott Cardiovascular Systems Inc., priority 2007, dated 2011).
Ends that are not written are not given here.

Legend:
[1] = tested on: reverse cholesterol transport; conditions: cited from earlier work
[2] = turbidity change of DMPC multilamellar vesicles (MLV) after mixing with peptide; type: physicochemical
Method: A mimetic peptide, SEQ ID NO: 4, was mixed with multilamellar vesicles comprised of DMPC. A DMPC chloroform solution was gently dried by nitrogen stream in the fume hood or by rotor evaporator. Resultant lipid film was further dried in vacuum desiccators and subjected to vacuum for at least 3 hours to remove residual chloroform. Phosphate buffered saline (PBS) was added to the lipid film and mixed using a vortex mixer to prepare an MLV suspension (2.5 mg/mL). The peptide was dissolved in PBS (1 mg/mL) then mixed with the same volume of MLV suspension at room temperature. […] At 0.5 mg/mL mimetic peptide in solution, the absorbance at 400 nm is zero. At 1.25 mg/mL DMPC in solution, the absorbance at 400 nm is 0.1. When the two solutions are combined and after approximately 5 minutes of mixing, the absorbance begins to approach zero. After approximately 15 minutes of mixing, the solution becomes completely clear, i.e., the absorbance is zero, thus evidencing mimetic peptide/phospholipid complexing.

[3] = CD spectra after heating then cooling; type: physicochemical; conditions: 25° C., heated to 70° C., cooled back to 25° C.; 0.0625-0.5 mg/mL
Method: As shown in each chart (vii) through (x), a CD spectrum of the mimetic peptide was obtained at t1=25° C., then heated to t2=70° C., then cooled back to t3=25° C. for varying concentrations, e.g., 0.5 mg/mL mimetic peptide, 0.25 mg/mL mimetic peptide, 0.125 mg/mL mimetic peptide, and 0.0625 mg/mL mimetic peptide. The spectrums at t and t3 show a substantially identical spectrum for each of t1 and t3 at the various concentrations, thus indicating the mimetic peptide's secondary structure change is reversible when subjected to heat.

[4] = circular dichroism (CD) spectra, calculated percent secondary structure; type: physicochemical

## DWFKAFYDKVAEKFKEAF (not fully specified) [D-4F, 18-mer apo A-I mimetic peptide 4F, D enantiomer]
[1]; when a phospholipid complex is presented
  reverse cholesterol transport in vitro: function more effectively
[1]; without a lipid complex
  reverse cholesterol transport: effective

## Ac-DWFKAFYDKVAEKFKEAF-NH2 [SEQ ID NO: 4, 18-mer peptide, 4F, N-acetyl, C-amide]
[2]; 0.5 mg/mL mimetic peptide in solution (PBS)
  absorbance at 400 nm: zero
[3]
  secondary structure change when subjected to heat: reversible
[4]; 0.125 mg/mL mimetic peptide
  alpha helicity: 10.5%
[4]; 0.25 mg/mL mimetic peptide
  alpha helicity: 16%
[4]; 0.5 mg/mL mimetic peptide
  alpha helicity: 19.5%

## PALEDLRQGLLPVLESFKVFLSALEEYTKKLNTQ [33-mer peptide mimetic]
[1]
  need of phospholipid complex for effective reverse cholesterol transport: requires phospholipid complex formation

## CCCCCCCCCCCCCC(=O)OC[C@H](COP(=O)([O-])OCC[N+](C)(C)C)OC(=O)CCCCCCCCCCCCC [DMPC, dimyristoylphosphatidylcholine, reference compound]
[2]; 1.25 mg/mL DMPC in solution (MLV in PBS)
  absorbance at 400 nm: 0.1
